{"source": "patent US20260176306A1", "binders": {"B1": {"name": "H7.HK4 (antibody, V domains shown)", "VH": "QVQLQESGPGLVKPSETLSLTCTVSGGSVRSASYAWSWIRQPPGKGLEWIGDIYYSGTTNYNPSLKSRVTLSVDTAKNRFSLRLRSVTAADTAVYHCARERYYYGSSGDFDYWGQGTLVTVSS", "VL": "DIQMTQSPSSLSASVGDRVTITCRASQGIRNYLAWFQQKPGQAPKSLIFAASSLHTGVPSRFSGSGSGTDFTLTISSLQPEDFATYYCQHYNSYPPTFGQGTKLEIK"}, "B2": {"name": "H7.HK2 (antibody, V domains shown)", "VH": "QVQLQGSGPGLLRPSETLSLTCSVSGVSINSYYWSWVRQPPGKALEWIGYIYYSGNTNYNPSLESRVTISVDRSKNQFSLKMTSVTAADTARYFCARQGIFGDYGSDYWGPGTLVTVSS", "VL": "DIVMTQSPLSLPVTPGEPASISCRSNQSLQHSNGYVHLDWYRQKPGQSPHLLIYLGFNRASGVPDRFSGGGSGTDFTLKISRVEAEDVGVYYCMQGLQTPFTFGPGTTVDLK"}, "B3": {"name": "H7.HK1 (antibody, V domains shown)", "VH": "QVQLQESGPGLVKPSETLSLTCSVSGGSINSYYWTWIRQPPGKGLEWVGYIYHSGSTSYNPSLKSRITISVAPSKNHFSLELTSMTAADTAVYYCARLGGHGDYGSDYWGQGTLVTVSS", "VL": "DIVMTQSPVSLPVTPGEPASISCNSSQSLLHSNGYAHLDWYLQKPGQSPKLMIYLGLNRAFGVPDRFSGSGSGTDFTLKISRVEAEDVGVYYCMQALQTPFTFGPGTRVDIK"}}, "key": {"[1]": {"target": "H7 hemagglutinin of A/Shanghai/4664T/2013 H7N9 on pseudo virus (Influenza A virus A/Shanghai/4664T/2013 H7N9)", "experiment": "cell-based or functional assay"}, "[2]": {"target": "H7 hemagglutinin of A/Hong Kong/125/2017 H7N9 on pseudo virus (Influenza A virus A/Hong Kong/125/2017 H7N9)", "experiment": "cell-based or functional assay"}}}
{"binder": "B1", "values": [{"measurement": "neutralization, H7N9 2013 pseudo virus, MDCK cells, luciferase", "setting": "[1]", "result": "> 10", "unit": "µg/mL"}]}
{"binder": "B2", "values": [{"measurement": "neutralization IC50, H7N9 2017 pseudo virus, MDCK cells, luciferase", "setting": "[2]", "result": 0.03, "unit": "µg/mL"}]}
{"binder": "B3", "values": [{"measurement": "neutralization IC50, H7N9 2017 pseudo virus, MDCK cells, luciferase", "setting": "[2]", "result": 0.03, "unit": "µg/mL"}]}
